Values of other authors, collected in paper PMC8797470, “Disruption of the pentraxin 3/CD44 interaction as an efficient therapy for triple‐negative breast cancers” (Clinical and Translational Medicine, 2022).

Molecular target: PTX3 (Homo sapiens) (UniProt P26022)
Sequence (P26022 18-381): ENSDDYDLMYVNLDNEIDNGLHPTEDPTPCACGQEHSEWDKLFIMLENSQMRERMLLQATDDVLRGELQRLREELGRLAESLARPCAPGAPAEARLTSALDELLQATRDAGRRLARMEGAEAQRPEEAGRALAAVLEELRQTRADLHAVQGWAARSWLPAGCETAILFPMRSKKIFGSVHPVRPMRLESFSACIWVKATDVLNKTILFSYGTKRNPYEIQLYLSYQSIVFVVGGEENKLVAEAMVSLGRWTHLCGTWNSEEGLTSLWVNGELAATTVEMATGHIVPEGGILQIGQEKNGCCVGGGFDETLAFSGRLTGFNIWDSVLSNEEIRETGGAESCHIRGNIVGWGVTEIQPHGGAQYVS

Sequence of TSG-6 link module (P98066 36-129): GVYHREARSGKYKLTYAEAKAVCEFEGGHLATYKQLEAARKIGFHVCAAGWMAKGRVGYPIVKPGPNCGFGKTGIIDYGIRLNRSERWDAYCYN

TSG-6 link module (from UniProt P98066)
Kd: 481 nM
